Patent US9018171B2, “Uses of an immunomodulatory protein (GMI) from Ganoderma microsporum” (Mycomagic Biotechnology Co., Ltd., priority 2010, dated 2015)
Like-named read-outs stand apart in the source and are kept apart here.

What was measured:
[1] = tested on: RPMI-8226; assay: NCI60 in vitro screening, Leukemia; assay type: cell-based
[2] = tested on: SR; assay: NCI60 in vitro screening, Leukemia; assay type: cell-based
[3] = tested on: UACC-257; assay: NCI60 in vitro screening, Melanoma; assay type: cell-based
[4] = tested on: OVCAR-4; assay: NCI60 in vitro screening, Ovarian Cancer; assay type: cell-based
[5] = tested on: RXF 393; assay: NCI60 in vitro screening, Renal Cancer; assay type: cell-based
[6] = tested on: PC-3; assay: NCI60 in vitro screening, Prostate Cancer; assay type: cell-based
[7] = tested on: DU-145; assay: NCI60 in vitro screening, Prostate Cancer; assay type: cell-based
[8] = tested on: U251; assay: NCI60 in vitro screening, CNS Cancer; assay type: cell-based; conditions: U251, one dose
[9] = tested on: BT-549

B1: GMI: immunomodulatory protein from Ganoderma microsporum, amino acid sequence SEQ ID NO: 3, manufactured by Mycomagic Biotechnology Co., Ltd. (protein, listed as Ganoderma microsporum)
chain: MSDTALIFTLAWNVKQLAFDYTPNWGRGRPSSFIDTVTFPTVLTDKAYTYRVVVSGKDLGVRPSYAVESDGSQKINFLEYNSGYGIADTNTIQVYVIDPDTGNNFIVAQWN
- TGI ([1]; RPMI-8226): >1.25E2
- Percent Growth ([1]; RPMI-8226, Log10 Concentration 0.1): 105%
- Percent Growth ([1]; RPMI-8226, Log10 Concentration 1.1): 100%
- Percent Growth ([1]; RPMI-8226, Log10 Concentration 2.1): 72%
- Percent Growth ([1]; RPMI-8226, Log10 Concentration −0.9): 102%
- Percent Growth ([1]; RPMI-8226, Log10 Concentration −1.9): 105%
- Growth Percent ([1]; RPMI-8226, one dose): 96.01%
- TGI [2]: >1.25E2
- Percent Growth ([2]; Log10 Concentration 0.1): 96%
- Percent Growth ([2]; Log10 Concentration 1.1): 17%
- Percent Growth ([2]; Log10 Concentration 2.1): 1%
- Percent Growth ([2]; Log10 Concentration −0.9): 96%
- Percent Growth ([2]; Log10 Concentration −1.9): 98%
- GI50 ([2]; in µg/mL): 4.79E0
- Growth Percent ([2]; one dose): 32.47%
- TGI ([3]; UACC-257): >1.25E2
- Percent Growth ([3]; UACC-257, Log10 Concentration 0.1): 98%
- Percent Growth ([3]; UACC-257, Log10 Concentration 1.1): 37%
- Percent Growth ([3]; UACC-257, Log10 Concentration 2.1): 52%
- Percent Growth ([3]; UACC-257, Log10 Concentration −0.9): 99%
- Percent Growth ([3]; UACC-257, Log10 Concentration −1.9): 103%
- Growth Percent ([3]; UACC-257, one dose): 89.25%
- TGI ([4]; OVCAR-4): >1.25E2
- Percent Growth ([4]; OVCAR-4, Log10 Concentration 0.1): 102%
- Percent Growth ([4]; OVCAR-4, Log10 Concentration 1.1): 107%
- Percent Growth ([4]; OVCAR-4, Log10 Concentration 2.1): 62%
- Percent Growth ([4]; OVCAR-4, Log10 Concentration −0.9): 102%
- Percent Growth ([4]; OVCAR-4, Log10 Concentration −1.9): 103%
- Growth Percent ([4]; OVCAR-4, one dose): 98.08%
- TGI ([5]; RXF 393): 4.72E1
- Percent Growth ([5]; RXF 393, Log10 Concentration 0.1): 101%
- Percent Growth ([5]; RXF 393, Log10 Concentration 1.1): 76%
- Percent Growth ([5]; RXF 393, Log10 Concentration 2.1): −56%
- Percent Growth ([5]; RXF 393, Log10 Concentration −0.9): 101%
- Percent Growth ([5]; RXF 393, Log10 Concentration −1.9): 101%
- Growth Percent ([5]; RXF 393, one dose): 38.93%
- GI50 ([5]; RXF 393, in µg/mL): 1.97E1
- LC50 ([5]; RXF 393, in µg/mL): 1.13E2
- TGI ([6]; PC-3): 3.87E1
- Percent Growth ([6]; PC-3, Log10 Concentration 0.1): 98%
- Percent Growth ([6]; PC-3, Log10 Concentration 1.1): 73%
- Percent Growth ([6]; PC-3, Log10 Concentration 2.1): −76%
- Percent Growth ([6]; PC-3, Log10 Concentration −0.9): 102%
- Percent Growth ([6]; PC-3, Log10 Concentration −1.9): 104%
- Growth Percent ([6]; PC-3, one dose): 79.73%
- GI50 ([6]; PC-3, in µg/mL): 1.79E1
- LC50 ([6]; PC-3, in µg/mL): 8.34E1
- TGI ([7]; DU-145): >1.25E2
- Percent Growth ([7]; DU-145, Log10 Concentration 0.1): 109%
- Percent Growth ([7]; DU-145, Log10 Concentration 1.1): 71%
- Percent Growth ([7]; DU-145, Log10 Concentration 2.1): 9%
- Percent Growth ([7]; DU-145, Log10 Concentration −0.9): 99%
- Percent Growth ([7]; DU-145, Log10 Concentration −1.9): 101%
- Growth Percent ([7]; DU-145, one dose): 39.22%
- GI50 ([7]; DU-145, in µg/mL): 2.76E1
- Growth Percent [8]: 69.04%
- LC50 [9]: 7.24E1
- TGI ([9]; BT-549): 2.27E1
- Percent Growth ([9]; BT-549, Log10 Concentration 0.1): 100%
- Percent Growth ([9]; BT-549, Log10 Concentration 1.1): 26%
- Percent Growth ([9]; BT-549, Log10 Concentration 2.1): −74%
- Percent Growth ([9]; BT-549, Log10 Concentration −0.9): 98%
- Percent Growth ([9]; BT-549, Log10 Concentration −1.9): 104%
- Growth Percent ([9]; BT-549, one dose): −74.30%
- GI50 ([9]; BT-549, in µg/mL): 5.89E0
